Measured values from US20100216715A1 (Novo Nordisk, published 2010).

T1: human beta-Klotho (human, UniProt Q86Z14 1-1044)
T1 sequence (looked up): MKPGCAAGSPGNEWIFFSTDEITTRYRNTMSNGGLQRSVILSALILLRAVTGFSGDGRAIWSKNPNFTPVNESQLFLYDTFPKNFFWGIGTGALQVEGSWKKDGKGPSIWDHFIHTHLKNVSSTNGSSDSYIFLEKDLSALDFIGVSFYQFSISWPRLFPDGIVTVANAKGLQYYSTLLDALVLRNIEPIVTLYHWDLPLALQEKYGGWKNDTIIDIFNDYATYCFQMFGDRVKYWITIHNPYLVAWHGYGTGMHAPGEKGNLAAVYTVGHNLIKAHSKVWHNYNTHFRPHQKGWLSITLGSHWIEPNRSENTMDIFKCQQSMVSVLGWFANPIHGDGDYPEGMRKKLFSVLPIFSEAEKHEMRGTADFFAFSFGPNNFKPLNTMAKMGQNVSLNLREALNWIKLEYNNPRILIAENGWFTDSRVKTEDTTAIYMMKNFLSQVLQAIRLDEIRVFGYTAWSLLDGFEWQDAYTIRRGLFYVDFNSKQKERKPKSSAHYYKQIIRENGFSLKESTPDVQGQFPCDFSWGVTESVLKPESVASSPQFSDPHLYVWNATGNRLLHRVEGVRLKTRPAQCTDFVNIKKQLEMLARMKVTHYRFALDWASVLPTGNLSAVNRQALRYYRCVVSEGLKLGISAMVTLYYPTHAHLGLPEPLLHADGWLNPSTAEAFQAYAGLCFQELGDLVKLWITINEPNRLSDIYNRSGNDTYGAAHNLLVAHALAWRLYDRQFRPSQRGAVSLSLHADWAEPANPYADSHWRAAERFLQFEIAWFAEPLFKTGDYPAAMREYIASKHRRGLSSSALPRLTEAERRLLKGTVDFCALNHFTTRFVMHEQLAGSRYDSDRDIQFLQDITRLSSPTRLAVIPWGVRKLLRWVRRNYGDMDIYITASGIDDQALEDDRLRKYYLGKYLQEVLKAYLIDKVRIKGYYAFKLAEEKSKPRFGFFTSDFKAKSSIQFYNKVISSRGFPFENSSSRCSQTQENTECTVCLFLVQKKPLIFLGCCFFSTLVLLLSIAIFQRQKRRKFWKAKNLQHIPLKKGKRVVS


Biological target: T1, human beta-Klotho
Experiment: cell-based or functional assay

pERK-HEK293-Beta-klotho without HSA [EC50 (nM)] Median Value [nM] | Binder
2.1 | Gly-FGF21 (ligand) GHPIPDSSPLLQFGGQVRQRYLYTDDAQQTEAHLEIREDGTVGGAADQSPESLLQLKALKPGVIQILGVKTSRFLCQRPDGALYGSLHFDPEACSFRELLLEDGYNVYQSEAHGLPLHLPGNKSPHRDPAPRGPARFLPLPGLPPALPEPPGILAPQPPDVGSSDPLSMVGPSQGRSPSYAS
1.8 | Gly-FGF21-M168L (ligand) GHPIPDSSPLLQFGGQVRQRYLYTDDAQQTEAHLEIREDGTVGGAADQSPESLLQLKALKPGVIQILGVKTSRFLCQRPDGALYGSLHFDPEACSFRELLLEDGYNVYQSEAHGLPLHLPGNKSPHRDPAPRGPARFLPLPGLPPALPEPPGILAPQPPDVGSSDPLSLVGPSQGRSPSYAS
75 | (Q15F, K56R, K59R, K69R, D102T, N121Q, K122R, Y179F, A180E, S181R) Gly-FGF21 (ligand) GHPIPDSSPLLQFGGFVRQRYLYTDDAQQTEAHLEIREDGTVGGAADQSPESLLQLRALRPGVIQILGVRTSRFLCQRPDGALYGSLHFDPEACSFRELLLETGYNVYQSEAHGLPLHLPGQRSPHRDPAPRGPARFLPLPGLPPALPEPPGILAPQPPDVGSSDPLSMVGPSQGRSPSFER
